Reference: PMC10533390, “The interface of condensates of the hnRNPA1 low-complexity domain promotes formation of amyloid fibrils” (Nature Chemistry, 2023)

B1: hnRNPA1-B low-complexity domain (domain or fragment, UniProt P09651 186-372, looked up)
chain: MASASSSQRGRSGSGNFGGGRGGGFGGNDNFGRGGNFSGRGGFGGSRGGGGYGGSGDGYNGFGNDGGYGGGGPGYSGGSRGYGSGGQGYGNQGSGYGGSGSYDSYNNGGGGGFGGGSGSNFGGGGSYNDFGNYNNQSSNFGPMKGGNFGGRSSGPYGGGGQYFAKPRNQGGYGGSSSSSSYGSGRRF
notes: C-terminal low-complexity domain of heterogeneous nuclear ribonucleoprotein A1, splicing variant hnRNPA1-B (52 amino acids more than hnRNPA1-A); 19.8 kDa; also called B-LCD; hnRNPA1–B-LCD; source: E. coli BL21-Gold (DE3), purified (Ni-NTA, SEC on Superdex 75 in 2 M urea)
B2: hnRNPA1-A low-complexity domain (domain or fragment, UniProt P09651 186-250, looked up)
chain: MASASSSQRGRSGSGNFGGGRGGGFGGNDNFGRGGNFSGRGGFGGSRGGGGYGGSGDGYNGFGNDGSNFGGGGSYNDFGNYNNQSSNFGPMKGGNFGGRSSGPYGGGGQYFAKPRNQGGYGGSSSSSSYGSGRRF
notes: 15.2 kDa; The two stretches joined are the natural splice variant; also called A-LCD; hnRNPA1–A-LCD; source: E. coli BL21-Gold (DE3), purified (Ni-NTA, SEC on Superdex 75 in 8 M urea)

Target: the molecule itself
Test: ThT fluorescence kinetics + AFM + TEM + Raman spectroscopy (amyloid fibril formation); self-association into amyloid fibrils starting from condensates; 30 µM protein in 50 mM Tris pH 7.5, 200 mM NaCl, 2 mM β-mercaptoethanol, 20 µM ThT, 384-well plates; re-scan confocal images after ~70 h

Row | Protein | binding result
1 | B1 | binds
2 | B2 | binds
